This is an account of results in patent publication US20230399393A1, “METHODS TO EXTEND HEALTH-SPAN AND TREAT AGE-RELATED DISEASES” (National University of Singapore, priority 2020, published 2023).

For test [1], the system named is Primary human hepatic stellate cells (HSCs). Put plainly: Increasing concentrations of IL-11 or IL-6, western blot p-LKB1/p-AMPK. Particulars: 24 hours; 1.25-20 ng/ml, even at the highest concentration. The class given is cell-based. The protocol:
(§1) FIG. 23. Western blot image showing the levels of p-LKB1, LKB1, p-AMPK, AMPK in primary human hepatocytes or primary human hepatic stellate cells that are unstimulated (BL) or stimulated for 24 hours with increasing concentrations (1.25, 2.5, 5, 10 or 20 ng/ml) of IL-11 or IL-6.
(§2) Primary human hepatic stellate cells (HSCs) and human hepatocytes were stimulated for 24 hours with increasing concentrations (1.25-20 ng/ml) of IL-11 or IL-6. […] The effect of IL-11 on these markers is observable at concentrations as low as 1.25 ng/ml in both HSCs and hepatocytes.

Another test relates to human hepatocytes. The test is described as above. Particulars: 24 hours; 1.25-20 ng/ml, even at the highest concentration. The class given is cell-based. Here is the method:
as §1, §2

Test [2] relates to Primary human cardiac fibroblasts. Nature of the test: IL11 or TGFβ1 stimulated fibroblasts with X203, X209 or IgG, western blot. The class given is cell-based. The note with it: IL11/TGFβ1 10 ng/ml, 24 hours; antibody 2 μg/ml. The protocol:
FIG. 19. Western blot image showing the levels of p-ERK, ERK, p-P90RSK, P90RSK, p-LKB1, LKB1, p-AMPK, AMPK, p-mTOR, mTOR, p-p70S6K, p70S6K, p-S6RP, S6RP, SMA, and GAPDH in primary human cardiac fibroblasts that are unstimulated (BL) or stimulated for 24 hours with either IL11 or TGFβ1 in the presence of X203, X209, or IgG (11E10) isotype control. IL11/TGFβ1 (10 ng/ml), IgG/X203/X209 (2 μg/ml).
Primary human cardiac fibroblasts were stimulated with IL11 or TGFβ1, or unstimulated (BL).

In test [3] the test system is AML12. Put plainly: Senescence prevention experiment, qPCR at day 10. The note with it: 2 μg/ml during recovery period, vs IgG. The class given is cell-based, mouse. The protocol:
FIG. 24. (24A) Schematic of senescence prevention experiment for data shown in B-F. Senescent AML12 were generated by treating the cells with a sub-lethal concentration of H2O2 (0.75 mM) for 1 hour, followed by 23 hours recovery per day, for 7 days as described by Tripathi et. al. (2020). IgG/X209 (2 μg/ml) was added into the cultures during the 23 hours recovery period for 10 days; cells were harvested at day 10 for RNA extraction and subsequent qPCR experiments. Relative mRNA expression of (24B) Cdkn2a (p16), (24C) Cdkn1a (p21), (24D) Il1β, (24E) Il8, and (24F) Il11.
Briefly, senescent AML12 were generated by treating the cells with a sub-lethal concentration of H2O2 as described by Tripathi et. al. (2020) STAR Protocols 1 (2): 100064. IgG/X209 (2 μg/ml) was added into the cultures during the 23 hours recovery period for 10 days. Relative mRNA expression of Cdkn2a (p16), Cdkn1a (p21), Il1β, Il8, and Il11, as measured by qPCR is shown in FIGS. 24B, 24C, 24D, 24E and 24F, respectively. Markers of senescence (P16 and p21) and markers of inflammation (IL-1b, IL-11 and […]) are diminished in cells that have undergone IL-11-mediated signalling antagonism by X209.
(§3) Senescent AML12 were generated by treating the cells with a sub-lethal concentration of H2O2 (0.75 mM) for 1 hour, followed by 23 hours recovery per day, for 7 days as described (Tripathi, Yen, and Singh 2020, STAR Protocols 1 (2): 100064). For prevention study, AML12 cells were treated with 2 ug/ml of either IgG or X209 during the recovery period of the senescence induction stage (from day 1 to day 7); cells were harvested for total RNA collection at day 10. For reversal study, senescence was first induced for seven days followed by 2 ug/ml of IgG, X203, or X209 treatment for 3 days; cells were harvested for total RNA collection at day 10.
(§4) Total RNA was extracted from AML12 or snap-frozen tissues using Trizol (Invitrogen) and RNeasy Mini Kit (Qiagen). […] using iScript cDNA Synthesis Kit (Biorad). Gene expression analysis was performed on duplicate samples with either TaqMan (Applied Biosystems) for Il11 (Mm00434162) or fast SYBR green (Qiagen) technology using StepOnePlus™ (Applied Biosystem) for Ccl2, Ccl5, Gapdh, Il1β, Il6, Il8, p16, p21, Tnfα, over 40 cycles. Expression data were normalized to GAPDH mRNA expression and fold change was calculated using 2^−ΔΔct method.

The subject of test [4] is AML12. Put plainly: Senescence reversal experiment, qPCR at day 10. The class given is cell-based, mouse. Particulars: 2 μg/ml for 72 hours after 7 days senescence induction; vs IgG. The protocol:
FIG. 25. (25A) Schematic of senescence reversal experiment for data shown in B-D. Senescent AML12 were generated for 7 days as described above. IgG/X203/X209 (2 μg/ml) was added into the cultures at the end of senescence induction period for 72 hours; cells were harvested at day 10 for RNA extraction and subsequent qPCR experiments. Relative mRNA expression of (25B) Cdkn1a (p21), (25C) Il1β, and (25D) Il11.
Briefly, senescent AML12 were generated for 7 days as described above, but IgG/X203/X209 (2 μg/ml) was added into the cultures at the end of senescence induction period for 72 hours.
as §3, §4

The subject of a further test is AML12 cells. Put plainly: In vitro model of senescence induction, qRT-PCR at day 7. The class given is cell-based, mouse. The note with it: 2 ug/ml from day 2, H2O2 0.75 mM, vs isotype-matched control IgG. The protocol:
Senescent hepatic mouse cells were generated from cells of the mouse hepatocyte cell line AML12 as described in Tripathi et al., Star Protocols (2020) 1:100064 (hereby incorporated by reference in its entirety).
Briefly, AML12 cells were grown to 50% confluency and senescence was induced by treating the cells with a sub-lethal concentration of H2O2 (0.75 mM) for 1 h, followed by 23 h recovery per day, for a total of 7 days (as described in Tripathi et al., Star Protocols (2020) 1:100064). From day 2 onwards, 2 ug/ml of X209/X203 or isotype-matched control IgG was added to the cultures during the 23h recovery period.
Total RNA was isolated at day 7, and levels of p21 (Cdkn1a), […], Il11 and Tgfb gene expression were evaluated by qRT-PCR. Briefly, total RNA was extracted from cell lysates using Trizol (Invitrogen) followed by RNeasy column (Qiagen) purification. cDNAs were synthesized with iScript™ cDNA synthesis kit (Bio-Rad) according to manufacturer's instructions. Gene expression analysis was performed with either TaqMan (Applied Biosystems) or fast SYBR green (Qiagen) using the StepOnePlus Real-Time PCT System (Applied Biosystems) over 40 cycles. Expression data for p21 (Cdkn1a), Il1b, Il11 and Tgfb were normalised to Gapdh expression, and fold change was calculated using the 2^−ΔΔCt method.

Test [5] concerns Primary human hepatocytes. Put plainly: Hepatocytes stimulated with IL-11, BSA or palmitate with X203, X209 or IgG, western blot. The class given is cell-based. Particulars: 24 hours; antibody 2 μg/ml; IL11 10 ng/ml or palmitate 0.5 mM. Here is the method: FIG. 20. Western blot image showing the levels of p-ERK, ERK, p-P90RSK, P90RSK, p-LKB1, LKB1, p-AMPK, AMPK, p-Acetyl-CoA Carboxylase (p-ACC), Acetyl-CoA Carboxylase (ACC), p-mTOR, mTOR, p-p70S6K, p70S6K, p-S6RP, S6RP in primary human hepatocytes that are unstimulated (BL) or stimulated for 24 hours with either IL11, 0.5% BSA, or palmitate (saturated fatty acid) in the presence of X203, X209, or IgG (11E10) isotype control. IL11 (10 ng/ml), IgG/X203/X209 (2 μg/ml), palmitate (0.5 mM) conjugated in free BSA (0.5% BSA solution) in the ratio of 6:1.
Primary human hepatocytes (stimulated with IL-11, BSA or palmitate, or unstimulated) were treated with X203 (anti-IL-11 antagonist antibody) and X209 (anti-IL-11Rα antagonist antibody). […] Treatment with X203 or X209 essentially reverses the effect of palmitate stimulation on these markers to the levels observed in the unstimulated control.

In the next test the test system is IL-11 signalling. The note with it: binds IL-11Rα, engagement of gp130 homodimer fails; cited from earlier work.
The target in test [6] is T1, Mouse IL-11 protein in tissue lysates of C57Bl/6J mice (mouse, UniProt P47873 22-199, limits assumed).
T1 sequence (looked up): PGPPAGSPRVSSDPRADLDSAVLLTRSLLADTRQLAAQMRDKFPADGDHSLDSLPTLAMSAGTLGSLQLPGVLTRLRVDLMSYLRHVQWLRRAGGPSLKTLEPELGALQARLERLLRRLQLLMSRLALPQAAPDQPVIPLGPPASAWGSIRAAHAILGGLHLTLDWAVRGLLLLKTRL
Put plainly: western blot of mouse liver lysates (SDS-PAGE, PVDF), X203 as primary antibody, anti-mouse HRP and ECL detection. Here is the method:
Briefly, livers were harvested from mice and homogenized in radioimmunoprecipitation assay (RIPA) lysis and Extraction Buffer (ThermoFisher Scientific) containing protease and phosphatase inhibitors (Roche), followed by centrifugation to clear the lysate. Protein concentrations were determined by Bradford assay (Bio-Rad). Equal amounts of protein lysates were separated by SDS-PAGE, transferred to PVDF membranes, blocked for 1 h with 3% BSA, and incubated overnight with X203 (1:2000) or anti-GAPDH (1:1000, CST). Protein bands were visualized using the ECL detection system (Pierce) with the appropriate secondary antibodies: anti-mouse HRP and anti-rabbit HRP (1:5000, CST). […]

In the case of “IL-6: cytokine used as comparator stimulus to IL-11”, the “inactivation of LKB1 or activation of AMPK” value (in [1]; in the test on human hepatocytes) was “does not induce” each time.

B1: X209: mouse anti-mouse IL-11Rα IgG antagonist antibody; VH SEQ ID NO:24, VL SEQ ID NO:25 (antibody, V domains shown)
VH: QVQLQQPGAELVRPGSSVKLSCKASGYTFTNYWMHWLKQRPVQGLEWIGNIGPSDSKTHYNQKFKDKATLTVDKSSSTAYMQLNSLTSEDSAVYYCARGDYVLFTYWGQGTLVTVSA
VL: DIVLTQSPATLSLSPGERATLSCRASQSISNNLHWYQQKSHEAPRLLIKYASQSISGIPARFSGSGSGTDFTLSFSSLETEDFAVYFCQQSYSWPLTFGQGTKLEIK
On to B1, for which the “level of phosphorylation of markers ERK, p90RSK, LKB1, mTOR, p70S6K and S6RP” value in test [2] was “significantly reduce”. In the test on AML12 [3], the “marker of inflammation IL-1b mRNA” value was “diminished”, the “marker of inflammation IL-6” value is reported as “diminished”, the “marker of inflammation IL-11 mRNA” value was “diminished” and the “marker of senescence P16 (Cdkn2a) mRNA” value is listed as “diminished”. Besides, in the test with AML12 [3], the “marker of senescence p21 (Cdkn1a) mRNA” value is given as “diminished”. In the test with AML12 [4], the “inflammation marker IL-1 b” value is “significantly reduce”, the “inflammation marker IL-11” value was “significantly reduce” and the “senescence marker p21” value was “significantly reduce”. In the test with AML12 cells, the “gene expression of Il11” value is on record as “significantly reduce”, the “gene expression of Il11b” value is “significantly reduce”, the “gene expression of Tgfb” value was “significantly reduce” and the “gene expression of p21 (Cdkn1a)” value is on record as “significantly reduce”. Further, in test [5], the “levels of p-AMPK and p-ACC” value is recorded as “increase”; the “levels of phosphorylated markers p-ERK, p-p90RSK, p-LKB1, p-mTOR, p-p70S6K and p-S6RP” value is listed as “reduces”.

B2: W147A: IL-11 antagonist in which amino acid 147 is mutated from a tryptophan to an alanine (protein, UniProt P20809 22-199, looked up, variant W147A)
Interleukin-11: PGPPPGPPRVSPDPRAELDSTVLLTRSLLADTRQLAAQLRDKFPADGDHNLDSLPTLAMSAGALGALQLPGVLTRLRADLLSYLRHVQWLRRAGGSSLKTLEPELGTLQARLDRLLRRLQLLMSRLALPQPPPDPPAPPLAPPSSAAGGIRAAHAILGGLHLTLDWAVRGLLLLKTRL
For the molecule B2, the “blockade of IL-11 signalling” value in the test on IL-11 signalling is listed as “efficient blockade”.

B3: X203, mouse anti-mouse IL-11 IgG (anti-IL-11 antagonist antibody) (antibody, V domains shown)
VH: EVQLQQSGPELVKPGASVKIPCKASGYTFTDYNMDWVKQSHGKSLEWIGDINPHNGGPIYNQKFTGKATLTVDKSSSTAYMELRSLTSEDTAVYYCARGELGHWYFDVWGTGTTVTVSS
VL: DIVLTQSPASLAVSLGQRATISCRASKSVSTSGYSYIHWYQQKPGQPPKLLIYLASNLDSGVPARFSGSGSGTDFTLNIHPVEEEDAATYYCQHSRDLPPTFGGGTKLEIK
notes: also called Enx203; anti-IL11 (X203)
For the molecule B3, the binding result in test [6] is given as “binds”.
